# Test: soluble on expression in E. coli; label from the status in PepcDB or PDB records
row,Sequence,soluble on expression in E. coli
1,MFRLSALYRYPIKSSAAESLERVALDALGVVGDRRWMAVDTETGRFFTQRLLPQLGRIQARWAAPEVLRLNAPGMSELSLEVPAADANLRGVTVWRDTLQAPDAGDAAADWLTRFLGRPTRLVHIPEARARQVDTGYAEPGQKVHFADGFPLLLIGQASLDDLSQRVGRPLEMLRFRPNLVVEGSAAFAEDGWKRIRIGSVEFVVAKPCSRCILTTLDPATGERNEDREPLTTLKTYREKDGAVLFGQNLIALGQGSLEVGMPVEILD,soluble
2,MFRVTCIDLENGEFALYINGHYLSSEDGSGEKLYLGDILERLSRLPGVTTETVERPVPDSDEWSWNDVADSVFPACITLSRNMTVAAFKQRLSRFPDDALCCGTFWLASDFLALDSSLTEDDIDAAMELAQHCHDANDGFNWSHLQWAIDEVKRGG,not soluble
3,MFSCISPQKSPAFSPEQEKMLKSNRANEPQSFVKGNDAAKSDLIDLEEVVTNWAKTMFDVTKSKAEGKIKKKYLSYNINWTKLFQECSEPTYTILGAKPNVVDAKQDEKVIFKTTFTNTTQREQEYSFKTERCTRSSSTVIIEKGVCRGAEVSLKLKTPCEVVEANAGFTTEVMLNHIGENTSEEELTWGVDSCVKVPPGAETVAELVIIEDIVTRDFRIENRLSGKVLVTITNLKENNSLVTIIEGNICDIIRGMPDYTAKGFRFDGPAAIYETRGQCIFRFGIEQKVRINEFSLNSSRRY,not soluble
4,MFTGIIEETGTIESMKKAGHAMALTIKCSKILEDVHLGDSIAVNGICLTVTDFTKNQFTVDVMPETVKATSLNDLTKGSKVNLERAMAANGRFGGHFVSGHVDGTAEITRIEEKSNAVYYDLKMDPSLTKTLVLKGSITVDGVSLTIFGLTEDTVTISLIPHTISETIFSEKTIGSKVNIECDMIGKYMYRFLHKANENKTQQTITKAFLSENGF,soluble
5,MFTKSGDDGNTNVINKRVGKDSPLVNFLGDLDELNSFIGFAISKIPWEDMKKDLERVQVELFEIGEDLSTQSSKKKIDEKYVKWLEERTVEYRKESGPVKLFVIPGGSEEASVLHVTRSVARRVERNAVKYTKELPEINRMIIVYLNRLSSLLFAMALVANKRRNVSEKIYDIGKFW,soluble
6,MFTYSLNLKLKTDRNFFGPGVVEVLQKIQQTGSLNLAAKEMKMSYNKAWRIVRVAEEELSFPLIIKSVGGCNGGGSIVTDQGKELIDQYLLFEKKVYQQVEACFEEIFKEQDVVSEELK,not soluble
7,MFVRTAVVLLLVASTAYTFVAPPSQATLACITCVATVKGVEAKMLHEGGNVAKHDVDAICLKEVPTHSAEHLCEEYGEHEVDVMVTLIKQDVPPKMICQELQKC,not soluble
8,MFYITSKKVPFVTYSKNVFIPVTNICRNQCGYCGFRREPGQPGARLMKPEEVISVLENGVRAGCTEALFTFGERAEEVPGYGEMLEEIGYSSTLEYLVFLCETAIDIGILPHTNAGIMTRSELEALKPLNASMGLMLESTAVLAAHKDCPGKIPERRLETIREAGKLKIPYTTGLLIGIGESRDDRIESLEAIAALHREYGHIQEVIIQNFAPKPGTEMENFPEPAVEEMMDSVELAARILPGDVAVQVAPNLIDPKSLIAKGVTDLGGISPLTIDWINPEAEWPDVKNLQKKLGDIPLKERLPVYPPYVKKGWYSERIGSLIKRLSDNSGYLEHHHHHH,not soluble
9,MGACRRIFKNYEPCELTICVTIICEPRSPPKFDHWKISKPGCPPKIISCSKATNNDVNREKRSRRKLVKKRTPSEVIEKLEEQEGSENCENVPFDKPLLHSDSATLICDEVATSRSPFEISTNEVENVDIQSEPRDRHVSITSMESVAGLGEADDQDDVTILKGLEEVHEIEVDKTVIEESIPNQPKGQRFDLLSNGDVTIPAMIMNDVDGPKKKLLVRRKKKSKTPDSPPQYRDYTETSIYMYIEMDKQNVGEFVWDQQCTRIDALVAPIVELDRMTTPEIPLEIELFD,not soluble
10,MGATLTVAVAACTVSTPTSAIPVTHIKCLRINGQIKCVKPISPNTTPAAEHIEHVRKNPRRKAAMDRAAARIADKIALKAGGETFVSLRMKKGFTQSELATAAGLPQPYLSRIENSKQSLQDKTVQKLANALGVSPLEVRAAFERRYEYMEQA,soluble
11,MGAVSAFSWASSGRLHALEVFVMKIPKTYDEIMEHFGGLIDEVTAELLESYAKGETVRVSEALAKSGRVAVEGVVLRVFPVRHFSKNGRSGKVGSVVIQDDCTVRVNFWNEAAEIIEAGDIVEGARIKVRGYARGEEIHVNSLSEVEVFVDFVNISELDEKVGERVNVKGFVSGLGEPEKANEIYISDETGRVKVLLENESLYYAVDIGSYVEIYNALAGEDGIYVDRNSRFSVGE,soluble
12,MGDRFDSARHRVEAAAIKAFAGEFDPQPFHLDEEAARHSLFGGLAASGWHTAAITMRLLVTSGLPLAQGIIGAGTELSWPNPTRPGDELHVETTVLAITPSKSRPDRAIVTCQSDTLNQRGEVVQRSTAKVVVFRRPLEHHHHHH,not soluble
13,MGEHKNCKCNRWVISLQAAFDRDDFEKLFRKAVQSITEEEFQRIPEFRHREDALACLFGRLLLRHSAQKFSGEPWNTIRFERTERGKPFLAVPADTTFGLNVSHQGDYVAFASSCSSKVGVDVMRLDNERNNKTADEYINSMAKSASPEELRMMRSQPTEAMKMTMFYRYWCLKEAILKATGVGIMKDLNSLDFRVNLQDRYRPGAFVTSTTVLEDGRLQDQWIFEETFVDAKHSAAVCKEKKLPRECVFRQDPEAKIFFSKITFESLLENAEITNPMPNNAADIFEEFMAKPKKTF,not soluble
14,MGEITQYSVSPALPAGLAIDPQTGVITGTPTAVTASAVYTVTGANSVDSVQALLTIEVAAVAVPPVGLVYVDRLPEYIVGVPITYNEPAYTGGEVTQFSISPALPAGLTLNTQSGVISGTPTVELAQTTFFITASNSAGLEHHHHHH,not soluble
15,MGEREGRVDSLLDTLYNLSEEKEAFFITQKMKKLFSVKLSKSKVILVAACLLLAGSGTAYAAHELTKQSVSVSINGKKKHIRTHANTVGDLLETLDIKTRDEDKITPAKQTKITADMDVVYEAAKPVKLTINGEEKTLWSTAKTVGALLDEQDVDVKEQDQIDPAIDTDISKDMKINIEPAFQVTVNDAGKQKKIWTTSTTVADFLKQQKMNIKDEDKIKPALDAKLTKGKADITITRIEKVTDVVEEKIAFDVKKQEDASLEKGKEKVVQKGKEGKLKKHFEVVKENGKEVSRELVKEETAEQSKDKVIAVGTKQSSPKFETVSASGDSKTVVSRSNESTGKVMTVSSTAYTASCSGCSGHTATGVNLKNNPNAKVIAVDPNVIPLGSKVHVEGYGYAIAADTGSAIKGNKIDVFFPEKSSAYRWGNKTVKIKILN,soluble
16,MGEVKDLGMADHGGFDLKIGARVVLEDVKLGDSIAVNGTCLTVTEFNAEEFTVGLAPETLRKTSLEELKKGSPVNLERALQPVSRMGGHVVQGHVDGTGVIESMEVEGDSLWVKVKADKGLLKYIVPKGFVAVDGTSLTVVDVFDEESCFNFMMIAYTQQNVVIPTKKIGQKVNLEVDIMGKYVERLLTSGGFSKGN,soluble
17,MGFCNMLLLSNILLTAWLSTAKGEEILCTPPRVENGDGLNVKPVYKENERYHYKCKHGYVPKERGDAICTGSGWSSQPFCEEKTCSPPYILNGIYTPHRIIHRSDDEIRYECNYGFYPVTGSTVSKCTPTGWIPVPRCTLKPCEFPQFKYGRLYYEESLRPNFPVSIGNKYSYRCDNGFSPPSGYSWDYLRCTAQGWEPEVPCVRKCVFHYVENGDSAYWEKIYVQGQSLKVQCYNGYSLQNGQDIMTCTENGWSPPPKCIRIKTCSASDIHIDNGFLSESSYIYALNRETSYRCKQGYVTNTGEISGSITCLQNGWSPQPSCIKSCDMPVFENSITKNTRTWFKLNDKLDYECLVGFENEYKHTKGSITCTYYGWSDTPSCYDSTRTCGPPPPIDNGDITSLSLPEYEPLSSVDYQCQKYYLLKGNKTITCRNGKWSEPPTCLHACVIPENIMEAHNIILKWRHTEKIYAHSGEDIEFECKRGYQKARGSLPFRTKCINGTINYPTCV,soluble
18,MGFLQRIGLLPQVTTTPTQHELLAPLLDTYIGVVTEMPTEELFAEQPHLRTVTTFIARAISSTSLHVYRRDSDGGRHRVRDSDLAKLMRRSSKTELMQDMLNGSILDLCLYDEFIWVAMEDSDSGEWELHRIPPTWIKQRKHSDPWTLEWMGIIDAKTGQQIKIPAERIIHVHGYNPTSTSRGLTPVVALRETLKEQLESAAYRGQLWRNGPRLGGVITRPKDAKWDSTSRKRFKAAWQSQYSGRGSGAGGTPILEDGMQFVPAHLKAQDEQVVEMTKLSLQTVASIYHVNPVMVGLLDNANYSNVREFRRSLYGDSLGPIIKQVEGVINEFLRPMIDDDDAVYVEFNLDEKLRASFEEKAAVTSTAVGGPWMTRNEARAMNNLPAIDGGEDLITPLNVTTENSESNNDVGLEEES,not soluble
19,MGFRLGIVGLPNVGKSTLFNALTKTMKAQAANYPFCTIEPNVGVVEVPDERLYKLAEIEKSQKITPTFIEFVDIAGLVKGASKGEGLGNQFLSHIREVDAVAMVLRAFEDENIVHVEGSVDPVRDKEIVEIELIAKDLESVNRRIEKVQKVAKGGDKKAREEMEHLNALKEILENLEPIRKYADKLPPETLEYAKKTLFLLTVKPVMYIANISEKDLPEGEGNPHVERIKEMANQENAPVVVISAELEAQLAGLSEEEQKEMLEAYGLKEPGLNKVIRTGYRLLDLITFFTAGEREARAWTVKRGTKAPQAAGKIHSDMERGFIAAEVISYEDLIKAGSWAKAKEQGLIRLEGKDYEIQDGDVVYFRFNV,soluble
20,MGGDFGPSVTVPAALQALNSNSQLTLLLVGNSDAITPLLAKADFEQRSRLQIIPAQSVIASDARPSQAIRASRGSSMRVALELVKEGRAQACVSAGNTGALMGLAKLLLKPLEGIERPALVTVLPHQQKGKTVVLDLGANVDCDSTMLVQFAIMGSVLAEEVVEIPNPRVALLNIGEEEVKGLDSIRDASAVLKTIPSINYIGYLEANELLTGKTDVLVCDGFTGNVTLKTMEGVVRMFLSLLKSQGEGKKRSWWLLLLKRWLQKSLTRRFSHLNPDQYNGACLLGLRGTVIKSHGAANQRAFAVAIEQAVQAVQRQVPQRIAARLESVYPAGFELLDGGKSGTLR,soluble
21,MGGMLRRLEVQNLAVIREAALDFAPGLNVLTGETGAGKSLLVDALALLLGGRAEGLIGPYGESLLVTAFFEGPPGEAVLSRRVGARSTPRVDGEVVTLKELQAEAERRLSLHAQHTALALLSPRRQREALDALLPEGLLAAYQEAYARREALLKEKAALEESLKARAEREDLLRYQIREIEEARVRPGEEEELLALAERLRHLETIRERLARALALLTEREAQDLLALAAKEVRAAARHDPALEALAEELSGAAEAVRAVARELEDHLEGLDLDPEELDRVEARLSLLERLKRKYGPTLADVLAHAQKAREELARMEGGEERLSEVERLLKALHEEVEARGQALRRAREEAARRLTEGMVRELPALGLAGARFAVVLEPLPEPGPQGLEAVAFRVAPNPNLPPAPLEALSGGELSRVALALALLTGTEAPTVVFDEVDAGVGGETAWRLAERLKRLAERRQVLVVTHLPQVAAVAQRHFRVTKTPEGVRVEPLAGEARVKEIARLLSGAYTQAALAHARELLEAQGAL,soluble
22,MGGRQSSVTEERPRSNSVDTAQVRVSSQHSSSQRANVMTAAEFMQTMRNARFLSSSSDSNASEDDAGPSHSTTHGNRSRGLHATPGRLHGHHSRRSVPVFMMDMKCPVCHKVVPSDDADIHLVMCLTRPKITYNDDVLKDDKGECSICLEDLEAGHKIARLPCLCIYHKQCIDDWFKRKNCCPEHPGDD,not soluble
23,MGGSHHHHHHGMASALERYAAALEEVADGARQQERHYQLLSALQSLVKELPSSFQQRLSYTTLSDLALALLDGTVFEIVQGLLEIQHLTEKSLYNQRLRLQNEHRVLRQALRQKHQEAQQACRPHNLPVVQAAQQRELEAVEHRIREEQRAMDQKIILELDRKVADQQSTLEKAGVAGFYVTTNPQELMLQMNLLELIRKLQQRGCRAGNAALGLGGPWQSPAAQCDQKGSPVPP,not soluble
